Data reported in publication PMC6332214, “A 7-Deazaadenosylaziridine Cofactor for Sequence-Specific Labeling of DNA by the DNA Cytosine-C5 Methyltransferase M.HhaI”.

Target: T1, M.HhaI (DNA cytosine-C5 methyltransferase) (Haemophilus haemolyticus, UniProt P05102 1-327)
T1 sequence: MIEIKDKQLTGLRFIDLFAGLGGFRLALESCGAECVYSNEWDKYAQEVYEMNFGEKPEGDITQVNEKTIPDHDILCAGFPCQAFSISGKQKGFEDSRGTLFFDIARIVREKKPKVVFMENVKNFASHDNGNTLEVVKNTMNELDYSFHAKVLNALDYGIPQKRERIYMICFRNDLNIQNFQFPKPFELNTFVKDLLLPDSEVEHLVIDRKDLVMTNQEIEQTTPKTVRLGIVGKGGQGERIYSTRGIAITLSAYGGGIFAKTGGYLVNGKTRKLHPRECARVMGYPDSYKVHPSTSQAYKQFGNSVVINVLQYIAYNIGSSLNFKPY
Test: anion-exchange HPLC; complex of M.HhaI with coupling product; 80 uM cofactor 5, 10 uM duplex, 11 uM M.HhaI, 37 C 3 h; stable to chromatography, released at 65 C; 10 mM Tris-HCl pH 7.4, 50 mM NaCl, 0.05 mM EDTA, 2 mM beta-mercaptoethanol, 37 C; anion-exchange HPLC (Poros 10 HQ) in KCl gradient 0.2-1 M
Settings: label: biotin (via cofactor 5); blunt

B1: duplex ODN I5·II (coupling product with aziridine cofactor 5) (dsDNA)
DNA 1: TGTCAGCGCATGA
DNA 2: TCATGCGCTGACA
modifications: target C (position 7 of strand I) alkylated with 7-deazaadenosylaziridine-biotin cofactor 5; 5-methyl-dC at position 6 of strand II
  binding result: binds
